{
  "source": "patent US20100028352A1",
  "molecular_target": "Gi-GPCRs on endothelial cells",
  "assay": "cell-based or functional assay",
  "data": [
    {"substance": "Full-length recombinant human GlyRS (from UniProt P41250 55-739) (enzyme)", "values": [
      {"measurement": "inhibition of forskolin-stimulated cAMP production, 25 and 100 nM uncleaved GlyRS", "result": 10, "unit": "%"}
    ]}
  ]
}
